molecular target: T1, GST-FKH-FoxA2 (Rattus norvegicus (rat; cloned from genomic DNA)) (UniProt P32182); assay: competition EMSA; conditions: 25 mM HEPES pH 7.6, 150 mM KCl, 0.2 mM EDTA, 0.2 mM EGTA, 10% glycerol, 1 mM DTT, 3 ug protein, 1 ng 32P-TTR probe, 2/5/20 ng competitor, on ice 15 min; 4% …
T1 sequence (P32182 145-290, looked up): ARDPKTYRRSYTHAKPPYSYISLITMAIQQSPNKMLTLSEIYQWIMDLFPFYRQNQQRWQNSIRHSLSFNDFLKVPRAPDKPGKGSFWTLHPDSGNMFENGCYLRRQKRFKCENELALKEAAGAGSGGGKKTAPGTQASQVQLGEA

| Sequence | binding signal (EMSA score (TTR=1)) |
| --- | --- |
| CAGTAAACTCTGCTGTGTGTACAGATAACATTAC (double strand) [non-site chr7:119551431] | 0.22 |
| CAGTAAGCCTCGCGTTGTTTGGTTAAGGGGCAGG (double strand) [FoxA BS chr1:7078701] | 0.83 |
| CAGTAAGGTTATTATTATTTGTTTTATTTTGTTT (double strand) [FoxA BS chr10:75378448] | 0.83 |
| CAGTACCCCAGGATTTGTGGGCTGTGGGTGTGGC (double strand) [non-site chr7:44970992] | -0.11 |
| CAGTACTAGATGTTTACTTTAAGGGACCAG (double strand) [FoxA BS chr9:107745824] | 1.3 |
| CAGTACTCATCCTGCTATTGACAGTCGGATATAT (double strand) [FoxA BS chr7:29476412] | 0.4 |
| CAGTAGAGGTCTTCCTCTTTGCCCATGTTGTGGG (double strand) [non-site chr7:26648074] | -0.16 |
| CAGTAGCCCCTCCTGTGTTGTCTTCCAGTAGATG (double strand) [non-site chr7:59095749] | 0.09 |
| CAGTAGCGCCTGCAGTTTACCTTGGCTCCG (double strand) [non-site chr9:102865800] | 0.13 |
| CAGTAGGGTCAAGGTAGTTTGCATATCTTCCAAC (double strand) [non-site chr7:83767529] | 0.24 |
| CAGTAGGTTTCTCTATTGACTCTATTGCCT (double strand) [FoxA BS chr11:45798706] | 0.49 |
| CAGTATGTGTTGTTGTTGACTTTAAGGTCG (double strand) [FoxA BS chr9:107420590] | 0.93 |
| CAGTATTGGACATTGTTTATTTGTTTTGCC (double strand) [FoxA BS chr1:141375708] | 1.21 |
| CAGTATTTATTTGTATGTATTTTGAGACAG (double strand) [FoxA BS chr3:116606401] | 0.38 |
| CAGTCACCGTTGTTTGTTCTGTGACAAATA (double strand) [FoxA BS chr19:56926814] | 0.68 |
| CAGTCAGCTCCCATGTTTACCAGGCCTTGA (double strand) [FoxA BS chr6:121311851] | 0.57 |
| CAGTCAGTGGAAGGCTGTTAACTGTGCCTGCTGC (double strand) [non-site chr13:40870570] | -0.02 |
| CAGTCATATAGGCTCTGTTTGAACATTAATTAAC (double strand) [FoxA BS chr15:82621996 b] | 0.31 |
| CAGTCCAGACTCGCTTGTTGACAGAGCTCAGGGC (double strand) [FoxA BS chr12:77880754 a] | 0.38 |
| CAGTCCAGGGGACCTGTTTACCTTACATAG (double strand) [FoxA BS chr17:45901267] | 0.7 |
| CAGTCCCGGGCCTGTTTGCTTTTCCATACA (double strand) [FoxA BS chr12:8003233] | 0.5 |
| CAGTCCCTATCTGTGTTTACAGCTGGTTTC (double strand) [non-site chr5:139643316] | 0.18 |

| Sequence | binding signal (EMSA score (TTR=1)) |
| --- | --- |
| CAGTCCCTTCCCTTATTTACATTCCCGAGA (double strand) [FoxA BS chr7:140707466 a] | 1.13 |
| CAGTCCGGGATTGGCTGTTTGTAATCTGCTCGAC (double strand) [non-site chr17:74394072] | 0 |
| CAGTCCTGGCTTTCCTGCTTACCCAACAACCGCT (double strand) [non-site chr3:94456673 b] | 0.07 |
| CAGTCCTTGTGCTTATTTACATACCCCGCC (double strand) [FoxA BS chr19:12527263] | 0.84 |
| CAGTCGTCTTCCCTGTGTGCTTACTATGCA (double strand) [non-site chr12:85340663 b] | 0.07 |
| CAGTCGTGACCTTTGTTGACTCGCGTCAGT (double strand) [FoxA BS chrX:17319260] | 0.53 |
| CAGTCTCCCGGCCGGGGTTGACTCTCTCTGAGCT (double strand) [non-site chr8:87127281] | 0.11 |
| CAGTCTCCTCCATTGTGTACACTCCCCCTC (double strand) [FoxA BS chr7:44717527] | 0.49 |
| CAGTCTCTGAGTGACTGTTTTCTGTAATACCCAA (double strand) [non-site chr15:91019750] | 0.01 |
| CAGTCTCTGCCCCTCTATTGGTCTAGCTCTCCAA (double strand) [non-site chr16:22806861] | 0.06 |
| CAGTCTGAGAAACCTTGTTGATCTCAGGCAACCC (double strand) [non-site chr8:13025407 a] | 0.07 |
| CAGTCTGCCCTGCTGTTTACCAGCTGGAGA (double strand) [FoxA BS chr3:94456673 a] | 0.29 |
| CAGTCTGCGGCGCCAGATTTACACAGCGCGAGGA (double strand) [FoxA BS chr7:15773405] | 0.25 |
| CAGTCTTGAGGCCTGTTTACCGTCCAGTTA (double strand) [FoxA BS chr19:44039737] | 0.43 |
| CAGTGACAACCAATGTTGACTTAAAACCTT (double strand) [FoxA BS chr4:61847631] | 0.82 |
| CAGTGAGGCGGGGTGTTGACTCTTACGCCA (double strand) [FoxA BS chr8:112454327] | 0.33 |
| CAGTGCAACAAGTTGTTTACACTCTTCATT (double strand) [FoxA BS chr6:34792983 a] | 0.82 |
| CAGTGCGGCGCTGTGTTTACCTTCCGGGAG (double strand) [FoxA BS chr11:85168610] | 1.08 |
| CAGTGCGTGCATTGGTGTTCGCTCAGAGCGGGAC (double strand) [non-site chr6:5446118] | 0 |
| CAGTGCTAGATCCAGTTTTTACACAGAAAGTTTC (double strand) [non-site chr8:13025407 b] | -0.06 |
| CAGTGGAACCTCTGATGTTGACTTTCCCTTGATT (double strand) [FoxA BS chr15:82621996 a] | 0.38 |
| CAGTGGACCTTATTTACTTTCCTTAGCAAG (double strand) [FoxA BS chr12:85340663 a] | 0.99 |

| Sequence | binding signal (EMSA score (TTR=1)) |
| --- | --- |
| CAGTGGATGCCTCTATTTGTTTAATCACAG (double strand) [FoxA BS chr9:122199103] | 1.1 |
| CAGTGGCATCCGACTGATTTACTGAGCTGGTTCC (double strand) [non-site chr7:140707466 b] | 0 |
| CAGTGGGACCTGTCTTGTTGACCCATCACGTCAC (double strand) [FoxA BS chr17:32151628] | 0.47 |
| CAGTGGTCACCCTTTGGTTTACCTTTTAGGAACA (double strand) [FoxA BS chr8:96902217 a] | 0.52 |
| CAGTGTGAGTGTGTGTGTGTATACAGCGTGAGTC (double strand) [FoxA BS chr15:59478046] | 0.26 |
| CAGTGTGTTCCTATGTGTACACAGTACTTG (double strand) [FoxA BS chr4:3604382] | 0.91 |
| CAGTGTTCAGAGCTGTTTACTTGAACGCGA (double strand) [FoxA BS chr6:34792983 b] | 0.53 |
| CAGTGTTGCCCGTCGTATTTGTATATGGTTTCCT (double strand) [FoxA BS chr10:79387812] | 0.58 |
| CAGTTATCAATGTTTGTTTACCTTGTGGCT (double strand) [FoxA BS chrX:6878436] | 1.65 |
| CAGTTATCTGTACTTTATTTTCAAACGCTATAAT (double strand) [non-site chr8:96902217 b] | -0.01 |
| CAGTTCACCTGAGGGTGTGTACACAGTCTCTCAG (double strand) [FoxA BS chr7:100410756] | 0.56 |
| CAGTTCATGCCACAGTTTACTCTGGTCCCT (double strand) [non-site chr1:154160175] | 0.24 |
| CAGTTGCCTTTCTGTTTGTTGTTTTGGAGG (double strand) [non-site chr5:30822343] | 0.21 |
| CAGTTGCGCCCCGGGTGTTGGCAGCGAGAAGTGG (double strand) [non-site chr12:77880754 b] | 0.03 |
| CAGTTGCTGGCCTAATGTGGACACAGGGGGTTCC (double strand) [FoxA BS chr3:83135377] | 0.64 |
| CAGTTGGAGTAGTTATTTACCTTAGCAGCC (double strand) [FoxA BS chr16:13816438] | 0.81 |
| CAGTTGGCCCCAGTATTTACATTTCTAACA (double strand) [FoxA BS chr15:54962925] | 0.92 |
| CAGTTGGGCATATTTGCTCAGAACCTGGTA (double strand) [FoxA BS chr1:159362347] | 0.37 |
| CAGTTTCAAAGCTTGTTGACGGAGAGAAAT (double strand) [non-site chr17:25500984] | 0.2 |
| CAGTTTGGGTCAATATTTATTCTTTCATTT (double strand) [FoxA BS chr19:38189585] | 0.48 |

same assay, conditions: negative control; 25 mM HEPES pH 7.6, 150 mM KCl, 0.2 mM EDTA, 0.2 mM EGTA, 10% glycerol, 1 mM DTT, 3 ug protein, 1 ng 32P-TTR probe, 2/5/20 ng competitor, on ice 15 min; 4% …

| Sequence | binding signal (EMSA score (TTR=1)) |
| --- | --- |
| CGATCAAAACTAGGTCAAAGGTCA (double strand) [PPAR] | 0 |
